The values that follow come from paper PMC11190491.

In this assay the target is peptide on cattle MR1 (cattle). The experiment in a line: data from (80); method not given; cattle MR1 without riboflavin-based antigen.

Consider A-F7 MAIT TCR, for which the equilibrium dissociation constant (Kd) (commonly the equilibrium constant for the complex coming apart) stood at 30 µM.
